Assay results reported in patent US20240016931A1 (JIANGSU HENGRUI PHARMACEUTICALS, published 2024).
Changes are numbered by the printed parent chain.

B1: hu119-20 (antibody, human IgG1, kappa)
heavy: EAQLVQSGAEVKKPGSSVKVSCKASGFTFSTYNMHWVRQAPGQGLEWIGAIYPGNGETSYNQKFKDRATLTVDKSTSTAYMELSSLRSEDTAVYYCAREDDYGEGYFDVWGQGTTVTVSSASTKGPSVFPLAPSSKSTSGGTAALGCLVKDYFPEPVTVSWNSGALTSGVHTFPAVLQSSGLYSLSSVVTVPSSSLGTQTYICNVNHKPSNTKVDKKVEPKSCDKTHTCPPCPAPELLGGPSVFLFPPKPKDTLYITREPEVTCVVVDVSHEDPEVKFNWYVDGVEVHNAKTKPREEQYNSTYRVVSVLTVLHQDWLNGKEYKCKVSNKALPAPIEKTISKAKGQPREPQVYTLPPSRDELTKNQVSLTCLVKGFYPSDIAVEWESNGQPENNYKTTPPVLDSDGSFFLYSKLTVDKSRWQQGNVFSCSVMHEALHNHYTQKSLSLSPGK
light: EIVLTQSPATLSLSPGERATLSCRASESVDNSGLSFMHWYQQKPGQPPRLLLYRASNLGSGIPARFSGSGSGTDFTLTISSLEPEDFAVYYCQQINTDPLTFGQGTKLEIKRTVAAPSVFIFPPSDEQLKSGTASVVCLLNNFYPREAKVQWKVDNALQSGNSQESVTEQDSKDSTYSLSSTLTLSKADYEKHKVYACEVTHQGLSSPVTKSFNRGEC
notes: IgG1-YTE, kappa
B2: hu119-02 (antibody, human IgG1, kappa)
heavy: B1 heavy with A2V, I48M, A68V
light: DIVMTQSPDSLAVSLGERATINCRASESVDNSGLSFMHWYQQKPGQPPKLLIYRASNLGSGVPDRFSGSGSGTDFTLTISSLQAEDVAVYYCQQINTDPLTFGQGTKLEIKRTVAAPSVFIFPPSDEQLKSGTASVVCLLNNFYPREAKVQWKVDNALQSGNSQESVTEQDSKDSTYSLSSTLTLSKADYEKHKVYACEVTHQGLSSPVTKSFNRGEC
notes: IgG1-YTE, kappa
B3: hu119-15 (antibody, human IgG1, kappa, V domains shown)
VH: EAQLVQSGAEVKKPGSSVKVSCKASGFTFSTYNMHWVRQAPGQGLEWIGAIYPGNGETSYNQKFKDRATLTVDKSTSTAYMELSSLRSEDTAVYYCAREDDYGEGYFDVWGQGTTVTVSS
VL: EIVLTQSPATLSLSPGERATLSCRASESVDNSGLSFMHWYQQKPGQAPRLLIYRASNLGSGIPARFSGSGSGTDFTLTISSLEPEDFAVYYCQQINTDPLTFGQGTKLEIKR
notes: IgG1-YTE, kappa
B4: hu119-26 (antibody, human IgG1, kappa)
heavy: B1 heavy with A2V, F27G, S77R
light: B1 light with E1D
notes: IgG1-YTE, kappa
B5: hu119-24 (antibody, human IgG1, kappa)
heavy: B1 heavy with A2V, F27G
light: B1 light with E1D
notes: IgG1-YTE, kappa
B6: hu119-04 (antibody, IgG1)
heavy: B1 heavy with A2V, R38K, Q39H
light: B2 light
notes: IgG1-YTE, kappa
B7: hu119-23 (antibody, human IgG1, kappa, V domains shown)
VH: B3 VH with A2V, R38K, Q39H
VL: B3 VL with E1D, A47P, I52L
notes: IgG1-YTE, kappa
B8: hu119-16 (antibody, human IgG1, kappa, V domains shown)
VH: B3 VH with A2V, F27G, S77R
VL: B3 VL
notes: IgG1-YTE, kappa
B9: hu119-25 (antibody, human IgG1, kappa)
heavy: B1 heavy
light: B1 light with E1D
notes: IgG1-YTE, kappa
B10: hu119-19 (antibody, human IgG1, kappa)
heavy: B1 heavy with A2V, F27G
light: B1 light
notes: IgG1-YTE, kappa
B11: hu119-01 (antibody, human IgG1, kappa)
heavy: B1 heavy with A2V, F27G, I48M, A68V, L70I, V72A
light: B2 light
notes: IgG1-YTE, kappa
B12: hu119-21 (antibody, human IgG1, kappa)
heavy: B1 heavy with A2V, F27G, S77R
light: B1 light
notes: IgG1-YTE, kappa
B13: hu119-22 (antibody, human IgG1, kappa)
heavy: B1 heavy with S77R
light: B1 light
notes: IgG1-YTE, kappa
B14: hu119-27 (antibody, human IgG1, kappa)
heavy: B1 heavy with S77R
light: B1 light with E1D
notes: IgG1-YTE, kappa
B15: hu119-17 (antibody, human IgG1, kappa, V domains shown)
VH: B3 VH with S77R
VL: B3 VL
notes: IgG1-YTE, kappa
B16: hu119-14 (antibody, human IgG1, kappa, V domains shown)
VH: B3 VH with A2V, F27G
VL: B3 VL
notes: IgG1-YTE, kappa
B17: Ch3 (antibody, human IgG1, kappa, V domains shown)
VH: EVQLQQSGPVLVKPGASVKMSCKASGYTFTDDYMNWVKQSHGKSLEWIGIISPYNGGTSYNQKFKGKATLTVDKSSSTAYMELNSLTSEDSAVYYCAREDYDYDGYAMDHWGQGTSVTVSS
VL: QIVLSQSPAILSASPGEKVTMTCRASSSVSYMHWYQQKPGSSPKPWIYATSNLASGVPARFSGSGSGTSYSLTISRVEAEDAATYYCQQWSSNRTFGGGTKLEIKR
notes: murine variable regions on human IgG1-YTE / kappa; also called chimeric antibody corresponding to mab3
B18: hu179-17 (antibody, human IgG1, kappa)
heavy: EVQLVQSGAEVKKPGSSVKVSCKASGYAFSNYLIEWVRQAPGQGLEWIGVIDPGNGDTNYNENFKGRATLTADKSTSTAYMELSSLRSEDTAVYYCAREDNTGTAFDYWGQGTTVTVSSASTKGPSVFPLAPSSKSTSGGTAALGCLVKDYFPEPVTVSWNSGALTSGVHTFPAVLQSSGLYSLSSVVTVPSSSLGTQTYICNVNHKPSNTKVDKKVEPKSCDKTHTCPPCPAPELLGGPSVFLFPPKPKDTLYITREPEVTCVVVDVSHEDPEVKFNWYVDGVEVHNAKTKPREEQYNSTYRVVSVLTVLHQDWLNGKEYKCKVSNKALPAPIEKTISKAKGQPREPQVYTLPPSRDELTKNQVSLTCLVKGFYPSDIAVEWESNGQPENNYKTTPPVLDSDGSFFLYSKLTVDKSRWQQGNVFSCSVMHEALHNHYTQKSLSLSPGK
light: SIVMTQTPLSLSVTPGQPASISCKASQSVSSDVTWYLQKPGQSPQLLIYYVSNHYTGVPDRFSGSGSGTDFTLKISRVEAEDVGVYYCQQHHRFPLTFGQGTKLEIKRTVAAPSVFIFPPSDEQLKSGTASVVCLLNNFYPREAKVQWKVDNALQSGNSQESVTEQDSKDSTYSLSSTLTLSKADYEKHKVYACEVTHQGLSSPVTKSFNRGEC
notes: IgG1-YTE, kappa
B19: hu179-18 (antibody, human IgG1, kappa, V domains shown)
VH: EVQLVQSGAEVKKPGSSVKVSCKASGYAFSNYLIEWVRQAPGQGLEWIGVIDPGNGDTNYNENFKGRATLTADKSTSTAYMELSSLRSEDTAVYYCAREDNTGTAFDYWGQGTTVTVSS
VL: SIVMTQTPLSLSVTPGQPASISCKASQSVSSDVTWYLQKPGQSPQLLIYYVSNHYTGVPDRFSGSGSGTDFTFKISRVEAEDVGVYYCQQHHRFPLTFGQGTKLEIKR
notes: IgG1-YTE, kappa
B20: hu179-19 (antibody, human IgG1, kappa, V domains shown)
VH: B19 VH
VL: B19 VL with S67Y, F73L
notes: IgG1-YTE, kappa
B21: Ch119 (antibody, human IgG1, kappa, V domains shown)
VH: QAYLQQSGAELVRPGASVKMSCKASGFAFTTYNMHWVKHTPGQGLEWIGAIYPGNGETSYNQKFKDRATLTVDKSSRTAYMQLSSLTSEDSAVYFCAREDDYGEGYFDVWGAGTTVTVSS
VL: DIVLTQSPASLAVSLGQRATISCRASESVDNSGLSFMHWYQQKPGQPPRLLLYRASNLGSGIPARFSGSGSGTDFTLTLNPVETDDVATYYCQQINTDPLTFGAGTKLELKR
notes: murine variable regions on human IgG1-YTE / kappa; also called chimeric antibody corresponding to mab119

Molecular target: T1, His-tagged human TSLP antigen (huTSLP-his) (human)
T1 construct: Secreted from HEK293E and purified on nickel; whole entry named; also called Human TSLP-his
Experiment: ELISA, coated huTSLP-his;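 further: binding of antibodies to plate-bound TSLP read as absorbance at 450 nm after TMB colour development, EC50 derived from binding curves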
Protocol: The plate was incubated at 4° C. overnight. After the liquid was discarded, 5% skim milk (skim milk powder from Brightdairy) blocking solution diluted with PBS was added at 200 μL/well, and the plate was incubated in an incubator at 37° C. for 2 h for blocking. After the blocking, the blocking solution was discarded, and the plate was washed 3 times with a PBST buffer (PBS containing 0.1% (v/v) tween-20, pH 7.4). […] After the incubation, the plate was washed 3 times with PBST. […] After the plate was washed 6 times with PBST, a TMB chromogenic substrate (KPL, 52-00-03) was added at 50 μL/well, and the plate was incubated at room temperature for 10-15 min. Then, 1 M H₂SO₄ was added at 50 μL/well to stop the reaction. The absorbance at 450 nm was read with a NOVOStar microplate reader, and the EC₅₀ values for the binding of the TSLP antibodies to TSLP were calculated.

| EC50 [pM] | Binder |
| --- | --- |
| 341 | B1 |
| 194 | B2 |
| 350 | B3 |
| 378 | B4 |
| 345 | B5 |
| 188 | B6 |
| 340 | B7 |
| 366 | B8 |
| 358 | B9 |
| 353 | B10 |
| 107 | B11 |
| 399 | B12 |
| 351 | B13 |
| 335 | B14 |
| 352 | B15 |
| 345 | B16 |
| 493 | B17 |
| 218 | B18 |
| 246 | B19 |
| 162 | B20 |
| 851 | B21 |
